Experiment [1] deals with T1, PD-1 on PD-1-overexpressing CHO/PD-1 cells (GenScript, Cat. No. M00529) (UniProt Q15116 25-288, limits assumed).
T1 construct: whole, on cells
In words: flow cytometry, association of PKH26-stained CHO/PD-1 and CFSE-stained SK-BR-3 cells.

The target of experiment [2] is T2, Recombinant human PD-1 (Beijing Yiqiao Shenzhou, Cat. No. 10377-H08H) (human, UniProt Q15116 25-167).
T2 construct: Bought protein coated on the ELISA plate
The experiment can be described thus: ELISA, antigen coated at 1 ug/mL. As to the method:
The coating was performed at 4° C. overnight. […] Color development was terminated by adding 100 μL/well of 1 M H₂SO₄. The absorbance at 450 nm was read on a microplate reader.

T2 sequence (Q15116 25-167 limits assumed): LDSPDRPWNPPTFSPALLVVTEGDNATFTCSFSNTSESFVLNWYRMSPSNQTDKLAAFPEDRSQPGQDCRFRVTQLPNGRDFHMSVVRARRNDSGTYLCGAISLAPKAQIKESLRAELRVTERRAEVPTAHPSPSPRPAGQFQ
T1 sequence (Q15116 25-288 limits assumed, one chain of several): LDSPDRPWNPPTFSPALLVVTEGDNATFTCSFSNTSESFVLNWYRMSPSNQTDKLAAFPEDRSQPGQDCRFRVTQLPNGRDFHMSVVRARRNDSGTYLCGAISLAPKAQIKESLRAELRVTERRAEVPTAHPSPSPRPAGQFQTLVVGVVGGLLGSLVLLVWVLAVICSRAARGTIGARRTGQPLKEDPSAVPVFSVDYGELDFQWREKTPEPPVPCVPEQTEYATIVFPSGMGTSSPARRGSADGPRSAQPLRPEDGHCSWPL

B1: anti-PD-1pem/anti-HER2 heterodimeric bispecific antibody (bispecific antibody, human IgG1, kappa)
heavy 1: not shown
light 1: EIVLTQSPATLSLSPGERATLSCRASKGVSTSGYSYLHWYQQKPGQAPRLLIYLASYLESGVPARFSGSGSGTDFTLTISSLEPEDFAVYYCQHSRDLPLTFGGGTKVEIKRTVAAPSVFIFPPSDEQLKSGTASVVCLLNNFYPREAKVQWKVDNALQSGNSQESVTEQDSKDSTYSLSSTLTLSKADYEKHKVYACEVTHQGLSSPVTKSFNRGEC
heavy 2: not shown
light 2: not shown
notes: also called PD-1/HER2 heterodimeric antibody; PD-1/HER2 heterodimer
Consider B1, for which the binding result in experiment [1] and in experiment [2] was “binds” throughout.

For the origin of these results see US20190367633A1 (BEIJING HANMI PHARMACEUTICAL, published 2019).
